Assay results reported in patent US20250326826A1 (CENTRO DE INGENIER A GEN TICA Y BIOTECNOLOG A, published 2025).

Columns and labels:
[1] = target: T1, Mouse bFGF (mouse, UniProt P15655 10-154, limits assumed); assay: ELISA, coated mouse bFGF
T1 construct: Bought (SinoBiological); also called mFGF-2
Procedure: (§1) The 96-well plates were coated with 100 μL/well of a solution of GST-hVEGF121, GST-mVEGF120, or GST at a concentration of 20 μg/mL, or with a solution of VEGFKDR- at a concentration of 10 μg/mL, or hFGF-2 or mFGF-2 at a concentration of 5 μg/mL in 1×PBS for 16 hours at 4° C. After the plates were blocked with PBS-5% skim milk for one hour, 1:2 serial dilutions of the purified VHHs were added, starting at 2 μg/mL in PBS-0.5% skim milk. The plates were incubated for 1 hour at 37° C. and after several washes, the monoclonal antibody 9E10, specific for c-myc, was added. After one hour of incubation at 25° C. the plates were washed thoroughly. The binding of the fragment to the antigen in the solid phase was detected by the peroxidase activity using 100 μL/well of TMB. The reaction was stopped with 50 μL/well of stop solution, and absorbance values at 450 nm were determined in a microtiter plate reader.
(§2) Specific binding to bFGF was evaluated as described in the bFGF recognition ELISAs of the Example 1. […] As in the case of Nb-V1, no recognition of GST or VEGF proteins was observed, thus reinforcing the evidence of the specificity of the binding of the Nb-F3 fragment to its antigen.

[2] = target: bFGF (soluble stimulus added to cell cultures); assay: cell-based or functional assay
[3] = target: VEGF (soluble stimulus added to cell cultures); assay: cell-based or functional assay
[4] = target: T2, Recombinant human bFGF (human, UniProt P09038 143-288, limits assumed); assay: ELISA, coated human bFGF
T2 construct: Bought (Sigma); also called hFGF-2; human basic fibroblast growth factor
Procedure: as §1
SEQ ID NO: 18 and SEQ ID NO: 19, and the bivalent Nb-VV6 and Nb-FF2, with sequences identified as SEQ ID NO: 20 and SEQ ID NO: 21, were expressed and purified as described in the Example 1. In all cases, the purity and identity of the proteins were verified by SDS-PAGE 12% and anti-polyhistidine Western Blot. […] The experimental mass of the polypeptides and the arrangement of the disulfide bridges were checked by ESI/MS-MS. The experimental and theoretical mass, for each polypeptide coincided, with errors less than 0.0015% in all cases, and the formation of intramolecular bridges between C22-C101 and C168-C247 was verified. […] The biological activity of the polypeptides was evaluated by ELISA for recognition of the VEGF and bFGF antigens, and by their ability to displace VEGF and bFGF binding to their respective VEGFR2 and FGFR1 receptors. […] Similarly, it was shown that the ability to displace the binding of antigens by their receptors was not affected.

[5] = target: T2, Recombinant human bFGF; assay: ELISA, coated human bFGF; remark: listed apart in the source
Procedure: as §1, §2

[6] = target: T3, GST-hVEGF121 (human, UniProt P15692-9 27-147); assay: ELISA, coated antigen
T3 construct: plate coating of the VEGF ELISAs; also called human VEGF; not shown: glutathione S-transferase (GST) fusion partner
T3 sequence (looked up): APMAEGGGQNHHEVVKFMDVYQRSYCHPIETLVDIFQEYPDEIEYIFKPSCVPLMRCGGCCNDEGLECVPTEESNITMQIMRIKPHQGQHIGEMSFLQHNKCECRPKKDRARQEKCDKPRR
Procedure: (§3) After one hour of incubation at 25° C. the plates were washed thoroughly. The binding of the fragment to the antigen in the solid phase was detected by the peroxidase activity using 100 μL/well of TMB. The reaction was stopped with 50 μL/well of stop solution, and absorbance values at 450 nm were determined in a microtiter plate reader.
(§4) The main characteristic of an antibody and its derived fragments is their recognition of the antigen, which determines their specificity and affinity. Specific binding to VEGF was evaluated as described in the section “ELISA for VHHs recognition of their target antigen” (Example 1). […] Nb-V1 also recognized a mutated variant of VEGF121 in the ELISA system where, in the so-called 80's loop, amino acids R82, K84 and H86 are replaced by E82, E84 and E86. It shares this property with CIGB166a, but differentiates it from Bevacizumab.
(§5) Specific binding to bFGF was evaluated as described in the bFGF recognition ELISAs of the Example 1.

[7] = target: T2, Recombinant human bFGF; assay: competition ELISA, coated bFGF, competitor Fc-FGFR1
Procedure: (§6) The ability of VHHs to hinder receptors for binding to their ligand was assessed by ELISA, for which 96-well plates (NUNC, USA) were coated with GST-hVEGF or bFGF and blocked as described in the previous section. Serial 1:2 dilutions of the purified VHHs, from […] to […], were added and the plates and incubated for 1 h at 37° C. In this step, some wells were left where only PBS-milk was added. […] After 45 min incubation at 37° C., plates were washed with PBS-0.05% Tween. To detect receptor binding, HRP-conjugated anti-human IgG antibody was added, diluted 1:5000 in PBS-0.5% milk. After incubation for 1 h at 37° C., the plates were washed with PBS-Tween, and TMB was added. The reaction was stopped after 10 min. Wells incubated with the receptors without the addition of the antibody fragments were taken as reference for maximum binding in the absence of competitor. In this assay, in the case of inhibition of the VEGF/VEGFR axis, the CIGB166a antibody fragment was used as a positive control, and an anti-FGF polyclonal antibody was used for the FGF/FGFR axis. The percentage of inhibition of receptor binding to its ligand was calculated as follows: […]

[8] = target: VEGF (soluble stimulus added to cell cultures); assay: cell-based or functional assay; remark: listed apart in the source
[9] = target: Human VEGF (dendritic cell assay) (human, UniProt P15692-4 27-191, limits assumed); assay: cell-based or functional assay
[10] = target: T3, GST-hVEGF121; assay: ELISA, coated GST-hVEGF121, detection with anti-c-myc 9E10
Procedure: as §1
(§7) The main characteristic of an antibody and its derived fragments is their recognition of the antigen, which determines their specificity and affinity. Specific binding to VEGF was evaluated as described in the section “ELISA for VHHs recognition of their target antigen” (Example 1). […] Nb-V1 also recognized a mutated variant of VEGF121 in the ELISA system where, in the so-called 80's loop, amino acids R82, K84 and H86 are replaced by E82, E84 and E86. […]

[11] = target: T4, CHO-VEGF (hVEGF121 produced in the CHO cell line) (human, UniProt P15692-9 27-147); assay: competition ELISA, coated CHO hVEGF121, competitor biotinylated CIGB166a
T4 construct: any tag is not described
T4 sequence (looked up): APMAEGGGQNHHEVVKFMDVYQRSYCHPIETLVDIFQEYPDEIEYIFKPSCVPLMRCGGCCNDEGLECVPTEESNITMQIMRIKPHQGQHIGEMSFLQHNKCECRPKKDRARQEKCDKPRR
Procedure: (§8) Their displacement from their binding to VEGF could be an indication of the potentiality of the new polypeptides to mediate the desired effects in vivo. The ability of anti-VEGF VHH to compete with Bevacizumab antibody and CIGB166a antibody fragment for binding to its ligand was assessed by a variation of the solid phase ligand competition ELISA as described. 96-well plates (NUNC, Germany) were coated with 1 μg/mL hVEGF121, produced in the CHO cell line. Serial dilutions of purified VHHs were added, from 15,000 nM to 1,200 nM.
(§9) Biotinylated Bevacizumab or biotinylated-CIGB166a were then added, diluted in blocking solution to a final concentration of 2.3 ng/mL and 14.3 ng/ml, respectively. To detect the binding of biotinylated antibodies, streptavidin conjugated to HRP was added. The wells incubated with Biotinylated Bevacizumab or biotinylated-CIGB166a, without the addition of the antibody fragments, were taken as reference of maximum binding in the absence of competitor. In this assay, the Fc-VEGFR2 receptor chimera was used as a positive control. The percentage of inhibition of the binding of Bevacizumab, CIGB166a or VEGFR2 to its ligand was calculated as described above in the Example 1.

[12] = target: T4, CHO-VEGF (hVEGF121 produced in the CHO …); assay: competition ELISA, coated CHO hVEGF121, competitor biotinylated Bevacizumab
Procedure: as §8, §9

[13] = target: T5, GST-mVEGF120 (mouse, UniProt Q00731-3 27-146); assay: ELISA, coated GST-mVEGF120
T5 construct: Produced in E. coli; also called mouse VEGF; mouse growth factor; not shown: glutathione S-transferase (GST) fusion partner
T5 sequence (looked up): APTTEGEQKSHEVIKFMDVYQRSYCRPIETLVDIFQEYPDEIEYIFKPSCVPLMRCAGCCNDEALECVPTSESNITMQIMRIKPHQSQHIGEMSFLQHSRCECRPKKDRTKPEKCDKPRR
Procedure: as §1, §7

[14] = target: T3, GST-hVEGF121; assay: ELISA, coated GST-hVEGF
Procedure: as §1

[15] = target: T2, Recombinant human bFGF; assay: ELISA, coated antigen
Procedure: as §3, §4, §5

[16] = target: T3, GST-hVEGF121; assay: ELISA, coated GST-hVEGF121
Procedure: as §1, §7

[17] = target: T3, GST-hVEGF121; assay: competition ELISA, coated GST-hVEGF, competitor Fc-VEGFR2
Procedure: as §6
The biological effect of VEGF is a consequence of its binding to two fundamental receptors (VEGFR1 and VEGFR2), so for a polypeptide that binds to VEGF to be effective in the therapeutic setting, it must block these interactions (Shibuya, Cell Structure and Function, 2001: 26: 25-35). The ability of Nb-V1 to compete with receptors 1 and 2 for binding to its ligand (VEGF) was assessed by solid phase ligand competition ELISA, as described above.

[18] = target: T2, Recombinant human bFGF; assay: ELISA, coated bFGF
Procedure: as §3, with “The plates were incubated for 1 hour at 37° C. and after several washes, the monoclonal antibody 9E10, specific for c-myc, was added. After” for “After”
SEQ ID NO: 18 and SEQ ID NO: 19, and the bivalent Nb-VV6 and Nb-FF2, with sequences identified as SEQ ID NO: 20 and SEQ ID NO: 21, were expressed and purified as described in the Example 1. In all cases, the purity and identity of the proteins were verified by SDS-PAGE 12% and anti-polyhistidine Western Blot. […] The experimental mass of the polypeptides and the arrangement of the disulfide bridges were checked by ESI/MS-MS. […] The biological activity of the polypeptides was evaluated by ELISA for recognition of the VEGF and bFGF antigens, and by their ability to displace VEGF and bFGF binding to their respective VEGFR2 and FGFR1 receptors. […] In agreement with the increase in recognition, a decrease in the KD of the fragments was observed, calculated according to the methodology described by Beatty et al (Beatty J D, Beatty B G, Vlahos W G. J Immunol Methods. 1987 Jun. 26;100(1-2):173-9).

T2 sequence (P09038 143-288 limits assumed): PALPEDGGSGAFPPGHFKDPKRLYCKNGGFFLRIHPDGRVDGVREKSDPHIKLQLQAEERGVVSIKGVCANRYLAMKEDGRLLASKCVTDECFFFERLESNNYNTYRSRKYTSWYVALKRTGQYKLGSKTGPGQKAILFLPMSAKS
Sequence of VEGF (soluble stimulus added to cell cultures) (P15692 whole entry): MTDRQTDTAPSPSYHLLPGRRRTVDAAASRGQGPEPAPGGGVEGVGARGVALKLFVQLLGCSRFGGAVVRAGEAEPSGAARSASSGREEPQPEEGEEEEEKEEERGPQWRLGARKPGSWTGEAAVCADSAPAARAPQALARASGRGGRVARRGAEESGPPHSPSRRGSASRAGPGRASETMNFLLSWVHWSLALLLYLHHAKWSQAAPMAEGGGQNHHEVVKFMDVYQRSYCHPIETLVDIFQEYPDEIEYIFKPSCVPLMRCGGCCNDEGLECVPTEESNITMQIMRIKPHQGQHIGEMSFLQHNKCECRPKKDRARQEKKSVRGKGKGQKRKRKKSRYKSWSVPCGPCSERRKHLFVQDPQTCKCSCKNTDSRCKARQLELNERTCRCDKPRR
T1 sequence (P15655 10-154 limits assumed): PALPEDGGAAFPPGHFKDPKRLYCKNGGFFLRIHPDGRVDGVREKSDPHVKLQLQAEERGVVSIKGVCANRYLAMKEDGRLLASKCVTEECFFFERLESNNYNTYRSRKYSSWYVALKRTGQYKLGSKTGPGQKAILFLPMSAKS

B1: Nb-F3 (VHH)
VHH: QVQLVESGGGLVQPGGSLRLSCAASGTEDGRLLTLGGSWFRQAPGQGLEAVAAIGAGDRGGATYYADSVKGRFTISRDNSKNTLYLQMNSLRAEDTAVYYCTALYERQPQLAATKVARKWGQGTLVTVSS
notes: carries the C-terminal c-myc tracer peptide and histidine tag; also called VHH Nb-F3
[1]
  EC50: 11.5 nM
[2]
  IC50, proliferation of HDMEC cells +bFGF (10 ng/ml): 121 nM
[3]
  IC50, proliferation of HDMEC cells +VEGF (5 ng/ml): > 6000 nM
[4]
  EC50: 11.3 nM
[5]
  fold increase in recognition against Nb-A5: 5 fold
[6]
  binding result: no binding
[7]
  IC50: 134 nM

B2: Nb-V1 (VHH)
VHH: QVQLVESGGGLVQPGGSLRLSCAASGNSAEDRLYNSYTWFRQAPGQGLEAVAAISSHFSAGLTYYADSVKGRFTISRDNSKNTLYLQMNSLRAEDTAVYYCEITSHASHNDAWSTPRTVWGQGTLVTVSS
notes: carries the C-terminal c-myc tracer peptide and histidine tag; also called VHH Nb-V1
[8]
  PD1 expression (%) in CD8+ cells treated with VEGF, VHH 1 µg/mL: 64%
  PD1 expression (%) in CD8+ cells treated with VEGF, VHH 5 µg/mL: 58%
  PD1 expression (%) in CD8+ cells treated with VEGF, VHH 10 µg/mL: 38%
[2]
  IC50, proliferation of HDMEC cells +bFGF (10 ng/ml): > 6000 nM
[3]
  IC50, proliferation of HDMEC cells +VEGF (5 ng/ml): 116 nM
[9]
  CD86 (MFI) on dendritic cells +VEGF +LPS, VHH 1 µg/mL: 1560 MFI
  CD86 (MFI) on dendritic cells +VEGF +LPS, VHH 5 µg/mL: 3000 MFI
  CD86 (MFI) on dendritic cells +VEGF +LPS, VHH 10 µg/mL: 17200 MFI
  MHCII (MFI) on dendritic cells +VEGF +LPS, VHH 1 µg/mL: 4700 MFI
  MHCII (MFI) on dendritic cells +VEGF +LPS, VHH 5 µg/mL: 5200 MFI
  MHCII (MFI) on dendritic cells +VEGF +LPS, VHH 10 µg/mL: 17000 MFI
[10]
  EC50: 4.73 nM
[11]
  IC50: 67.5 nM
[12]
  IC50: 931 nM
[13]
  EC50: 4.08 nM
[14]
  EC50: 4.45 nM
[15]
  binding result: no binding
[16]
  fold lower EC50 than Nb-E7: 3 fold
[17]
  IC50: 28.6 nM

B3: Nb-FF2 (VHH)
chain: QVQLVESGGGLVQPGGSLRLSCAASGTEDGRLLTLGGSWFRQAPGQGLEAVAAIGAGDRGGATYYADSVKGRFTISRDNSKNTLYLQMNSLRAEDTAVYYCTALYERQPQLAATKVARKWGQGTLVTVSSAHHSEDPSSKAPKAPAQVQLVESGGGLVQPGGSLRLSCAASGTEDGRLLTLGGSWFRQAPGQGLEAVAAIGAGDRGGATYYADSVKGRFTISRDNSKNTLYLQMNSLRAEDTAVYYCTALYERQPQLAATKVARKWGQGTLVTVSSAAAGSEQKLISEEDLNSHHHHHH
notes: Bivalent monospecific tandem VHH for bFGF; with c-myc and histidine tag
[2]
  IC50, proliferation of HDMEC cells +bFGF (10 ng/ml): 50 nM
[3]
  IC50, proliferation of HDMEC cells +VEGF (5 ng/ml): > 6000 nM
[4]
  EC50: 5.86 nM
[18]
  fold decrease of EC50 against Nb-F3: 2 fold
[7]
  IC50: 53.5 nM
